# In patent US20230139516:
# Biological target: 6×His-c-Myc, P01106
# Sequence (P01106 16-454): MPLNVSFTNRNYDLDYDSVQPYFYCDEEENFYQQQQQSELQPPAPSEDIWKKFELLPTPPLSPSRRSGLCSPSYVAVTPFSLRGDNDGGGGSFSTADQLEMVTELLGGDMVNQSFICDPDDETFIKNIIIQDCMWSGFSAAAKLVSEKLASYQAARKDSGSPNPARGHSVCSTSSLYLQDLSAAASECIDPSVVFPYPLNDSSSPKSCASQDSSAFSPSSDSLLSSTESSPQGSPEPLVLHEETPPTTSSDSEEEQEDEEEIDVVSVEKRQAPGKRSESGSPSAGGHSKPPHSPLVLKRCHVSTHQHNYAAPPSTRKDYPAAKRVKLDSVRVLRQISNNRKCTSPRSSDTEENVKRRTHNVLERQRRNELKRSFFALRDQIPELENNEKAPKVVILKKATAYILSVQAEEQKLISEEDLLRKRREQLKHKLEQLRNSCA
protein,measurement,value
GST-MKK7 (protein) MAASSLEQKLSRLEAKLKQENREARRRIDLNLDISPQRPRPTLQLPLANDGGSRSPSSESSPQHPTPPARPRHMLGLPSTLFTPRSMESIEIDQKLQEIMKQTGYLTIGGQRYQAEINDLENLGEMGSGTCGQVWKMRFRKTGHVIAVKQMRRSGNKEENKRILMDLDVVLKSHDCPYIVQCFGTFITNTDVFIAMELMGTCAEKLKKRMQGPIPERILGKMTVAIVKALYYLKEKHGVIHRDVKPSNILLDERGQIKLCDFGISGRLVDSKAKTRSAGCAAYMAPERIDPPDPTKPDYDIRADVWSLGISLVELATGQFPYKNCKTDFEVLTKVLQEEPPLLPGHMGFSGDFQSFVKDCLTKDHRKRPKYNKLLEHSFIKRYETLEVDVASWFKDVMAKTESPRTSGVLSQPHLPFFR,"in vitro kinase assay, immunoblot for p-c-Myc-Ser62",recombinant MKK7 could directly phosphorylate c-Myc-Ser62
